± gives the half width of the 95% confidence interval.
What was measured:
[1] = folding stability dG unfold from chymotrypsin proteolysis; higher = more stable
Procedure, shortened: (§1)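 Designed mini-proteins (under 80 residues, no cysteine) in a PA-tagged cDNA display construct were digested with trypsin and chymotrypsin. Each protease was used at 11 concentrations (threefold dilutions) plus a no-protease condition, followed by sequencing. K50 was inferred by Bayesian fitting of sequencing counts, and unfolding free energy was derived against a sequence-predicted unfolded-state K50 and a shared folded-state K50, per protease or combined. Only designs with AlphaFold2 dimer inter-PAE above 15 were kept.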

[2] = folding stability dG unfold (combined trypsin and chymotrypsin); higher = more stable
Procedure, shortened: as §1

[3] = folding stability dG unfold from trypsin proteolysis; higher = more stable
Procedure, shortened: as §1

Row | Sequence | folding stability dG unfold [1] [kcal/mol] | folding stability dG unfold [2] [kcal/mol] | folding stability dG unfold [3] [kcal/mol]
1 | SMKLIGVEEFENAKAVLFEKEDKYIKLVFIPEDIPEGEEIYYIKVFEGDEIIEEKAVKPEEIEEAIKEAGSA [r9_57_TrMRF] | 0.643 ± 0.21 | 0.428 ± 0.21 | 0.00129 ± 0.12
2 | SMKLIGYDPVTGKPVTLTFDPETKTVTVTHPNGEKITAPAESITFDPETGTVTITLPTKTVTFYVPPEANSA [r9_325_TrMRF] | 4.93 ± 0.12 | 4.82 ± 0.2 | 3.89 ± 0.27
3 | SMKPGDWKWIMFRFPDAENMEITIPIPLPPGYRVWFFFMNGERHEIPAGQEIKFKMPPGEPMWMMIWIWKSA [r9_79_TrROS] | 4.7 ± 0.1 | 4.06 ± 0.26 | 3.66 ± 0.11
4 | SMKPGEVKELTLKLTIPVKPGEITVTLVLKLEDGRYVVVESRATVKEDGTIEIEVKIRVYDPKTNEWKELSA [r9_349_TrROS_Hall] | 3.28 ± 0.18 | 2.89 ± 0.35 | 2.37 ± 0.19
5 | SMKPGQTVTFNVMIRMKDPNMTAQEFAEEAADEIAENFPPGVKIEIKVDDIEPDPPNGEVYFMVKITITVSA [r9_706_TrROS] | 4 ± 0.13 | 3.35 ± 0.23 | 2.54 ± 0.17
6 | SMKPITLEEALKLAEKLIEEGAKEVVIIRREDGTLLAIMEAEEASPEKVKEFLEANPNVRVLRITGSKEESA [r9_568_TrMRF] | 3.11 ± 0.045 | 3.07 ± 0.12 | 3.17 ± 0.15
7 | SMKPPVVEIKAKVVEVKEVNGKLYVKVEITEIKDAPPEVKELIKEGKTILVEVKPGEEVKEGDEVTIKIVSA [r9_557_TrROS_Hall] | 2.03 ± 0.22 | 2.32 ± 0.3 | 2.46 ± 0.21
8 | SMKPVKITEVTEDTITVTVTVYDKETNRLVKVTAEITFDKETKKLTIKVKVEVLPPLSEEQRKALEEALKSA [r9_1038_TrROS_Hall] | 2.94 ± 0.07 | 2.74 ± 0.17 | 1.98 ± 0.076
9 | SMKSEEEKKAKELKKQKPVIVFDKETGKITVYDAKTGKKIEIEVKVKKTKDGKVEPLTEEELKKLLKKLASA [r9_1056_TrROS_Hall] | 1.19 ± 0.28 | 1.12 ± 0.38 | 1.63 ± 0.077
10 | SMKSKIEVKTVTFTFSPDDPLAKTPLEEIISEKAKKEGKKIEIPSYSYTSTDPAKGTKTYTFTVKIIKEESA [r9_107_JUSTAS] | 0.797 ± 0.21 | 0.534 ± 0.14 | 0.122 ± 0.16
11 | SMKTVVIKIRKKDGKVTLEEIREAIKALLPPGAKVKLTEEELEKLVEELEKKTGKEITADDLVIVVEVEPSA [r9_197_TrROS_Hall] | 2.59 ± 0.081 | 2.51 ± 0.16 | 2.29 ± 0.085
12 | SMKVEIEEEVEGDRITLTIKFDDEEEAEKAIKELAKELGIPMKVLSRESEKLPGGEYKLTITGEVPPDLKSA [r9_102_JUSTAS] | 1.1 ± 0.24 | 0.529 ± 0.24 | 0.192 ± 0.083
13 | SMKVTLDGKGSVTTMPAEQLEVLIKELKEKGYKVKILSEEPDPNSDTVNYTIEITPPKPEKEEFENEELKSA [r9_448_JUSTAS] | 1.94 ± 0.12 | 1.59 ± 0.12 | 0.948 ± 0.039
14 | SMKVTVTVERLPDGRGRITITINDSTLEIEVPPGLDPEELRAFAEETAKEIEEKLKEEGNPVTIEEITLSSA [r9_751_JUSTAS] | 1.61 ± 0.14 | 2.15 ± 0.24 | 2.58 ± 0.14
15 | SMKVYVKVLPPEYAVAYIYTDKKYEIPIPTTDLEEARAQIEEIVNEIEKRTGVKAEVEITEVAPDTKIPLSA [r9_786_JUSTAS] | 0.928 ± 0.13 | 0.74 ± 0.22 | 0.182 ± 0.15
16 | SMKYVKILLTLKGKPHVITIPSSLSLEEIIDKAIEFAKELGYKDIPKEELKILKVEENPDEEGSSSIIIGSA [r9_1053_TrMRF] | 3.74 ± 0.042 | 3.61 ± 0.14 | 3.48 ± 0.2
17 | SMLKEIPITVPEEGEVVTVNIEELAKEQGLDPNNVTVTVTSSGPGKVYKITISSNGITITEVGNVPTALLSA [r9_819_JUSTAS] | 0.684 ± 0.098 | 0.717 ± 0.081 | 0.546 ± 0.04
18 | SMLLIKITVKNPDGEEKEIVLSAEELRKLFEEETGEEYSLEEIAERLKKLFPNAKVEIVPLEELSEEELKSA [r9_1085_TrROS_Hall] | 3.58 ± 0.068 | 3.31 ± 0.12 | 2.77 ± 0.073

Source: the supplement of paper PMC12764529
